Drawing on the supplement of paper PMC10567573, this text covers protein stability index for 94 variants.

The labels stand for the following.
B1: FAM189A2 (parent)
chain: VAAALRYLQIFATRRSCIDESQIS
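Further: lentivirally expressed fusions sorted by FACS into six bins by GFP to DsRed ratio, PSI derived from sequencing read proportions per bin multiplied by bin number.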

Variants of B1 are the subject of this data set. The data set is described as follows: protein stability index of a GFP-peptide fusion (GPS, HEK-293T) (PSI 1-6); higher = more stable. Particulars: c terminus: a fixed tail appended.
With VAAALRYLQIFATRRCCIDESQIS [S16C], the protein stability index was found to be 1.87. Then VAAALRYLQIFATRRACIDESQIS [S16A], with 3.14; and VAAALRYLQIFATRRECIDESQIS [S16E], with 1.79; and VAAALRYLQIFATRRDCIDESQIS [S16D], with 1.8. With VAAALRYLQIFATRRKCIDESQIS [S16K] the figure was 2.15; with VAAALRYLQIFATRRNCIDESQIS [S16N], 1.57. With VAAALRYLQIFATRRLCIDESQIS [S16L] the figure was 2.4.

For VAAALRYLQIFATRRGCIDESQIS [S16G], the protein stability index was 1.41. Then VAAALRYLQIFATRRMCIDESQIS [S16M], with 3.14.

Regarding VAAALRYLQIFATRRWCIDESQIS [S16W], the protein stability index was found to be 2.37. With VAAALRYLQIFATRRVCIDESQIS [S16V] the figure was 2.01. With VAAALRYLQIFATRRTCIDESQIS [S16T] the figure was 2.29; with VAAALRYLQIFATRRICIDESQIS [S16I], 1.5. With VAAALRYLQIFATRRQCIDESQIS [S16Q] the figure was 1.79. As to VAAALRYLQIFAVRRSCIDESQIS [T13V], the protein stability index was 2.99. Then VAAALRYLQIFAHRRSCIDESQIS [T13H], with 2.75; and VAAALRYLQIFAPRRSCIDESQIS [T13P], with 2.29; and VAAALRYLQIFADRRSCIDESQIS [T13D], with 1.52. In the case of VAAALRYLQIFARRRSCIDESQIS [T13R], the protein stability index came out at 1.51. As to VAAALRYLQIFANRRSCIDESQIS [T13N], the protein stability index stood at 1.99. With VAAALRYLQIFASRRSCIDESQIS [T13S] the figure was 1.76. Then VAAALRYLQIFAERRSCIDESQIS [T13E], with 2.07; and VAAALRYLQIFAKRRSCIDESQIS [T13K], with 2.61; and VAAALRYLQIFAQRRSCIDESQIS [T13Q], with 2.08. With VAAALRYLQIFAFRRSCIDESQIS [T13F] the figure was 2.78; with VAAALRYLQIFAMRRSCIDESQIS [T13M], 3.45. On to VAAALRYLQIFAARRSCIDESQIS [T13A], for which the protein stability index came to 1.71. In the case of VAAALRYLQIFAGRRSCIDESQIS [T13G], the protein stability index was found to be 1.72. Then VAAALRYLQIFATRRSCIDESQPS [I23P], with 2.46; and VAAALRYLQIFATRRSCIDESQHS [I23H], with 1.69; and VAAALRYLQIFATRRSCIDESQRS [I23R], with 1.91.

As to VAAALRYLQIFATRRSCIDESQYS [I23Y], the protein stability index is 3.27. As to VAAALRYLQIFATRRSCIDESQWS [I23W], the protein stability index is 1.87. With VAAALRYLQIFATRRSCIDESQLS [I23L] the figure was 1.61.

For the variant VAAALRYLQIFATRRSCIDESQSS [I23S], the protein stability index was determined as 1.84.

With VAAALRYLQIFATRRSCIDESQAS [I23A], the protein stability index was 1.24. For VAAALRYLQIFATRRSCIDESQQS [I23Q], the protein stability index came out at 1.88.

VAAALRYLQIFATRRSCIDESQGS [I23G]: the protein stability index amounted to 1.52. With VAAALRYLQIFATRRSCIDESQES [I23E] the figure was 2.76.

VAAALRYLQIFATRRSCIDESQMS [I23M]: the protein stability index is 1.35. With VAAALRYLQIFATRRSCIDESQDS [I23D] the figure was 1.77; with VAAALRYLQIFATRRSCIDESQFS [I23F], 2.9; with VAAALRYLQIFATRRSCIDESQNS [I23N], 3.01. With VAAALRYLQIFATRRSCIDESQCS [I23C] the figure was 1.73; with VAAALRYLQIFATRRSCIDESQKS [I23K], 1.94; with VAAALRYLQIFATRRSCIDESQTS [I23T], 2.18. Turning to VAAALRYLQIFATRRSCCDESQIS [I18C], the protein stability index was 2.3. With VAAALRYLQIFATRRSCQDESQIS [I18Q] the figure was 1.95. With VAAALRYLQIFATRRSCVDESQIS [I18V] the figure was 1.89; with VAAALRYLQIFATRRSCEDESQIS [I18E], 3.15.

For VAAALRYLQIFATRRSCGDESQIS [I18G], the protein stability index is 2.2. With VAAALRYLQIFATRRSCFDESQIS [I18F] the figure was 4.04; with VAAALRYLQIFATRRSCNDESQIS [I18N], 2.27. Consider VAAALRYLQIFATRRSCADESQIS [I18A], for which the protein stability index amounted to 2.58. Then VAAALRYLQIFATRRSCKDESQIS [I18K], with 2.7; and VAAALRYLQIFATRRSCDDESQIS [I18D], with 2.02; and VAAALRYLQIFATRRSCSDESQIS [I18S], with 2.14. Then VAAALRYLQIFATRRSCTDESQIS [I18T], with 1.75; and VAAALRYLQIFATRRSCYDESQIS [I18Y], with 2.54. With VAAALRYLQIFATRRSCPDESQIS [I18P] the figure was 2.1; with VAAALRYLQIFATRRSCWDESQIS [I18W], 4.01. With VAAALRYLQIFATRRSCLDESQIS [I18L], the protein stability index is 2.57. With VAAALRYLQIFATRRSCHDESQIS [I18H] the figure was 1.52; with VAAALRYLQIFATRRSGIDESQIS [C17G], 3.03. Regarding VAAALRYLQIFATRRSSIDESQIS [C17S], the protein stability index worked out at 1.74. With VAAALRYLQIFATRRSPIDESQIS [C17P] the figure was 2.05. Then VAAALRYLQIFATRRSDIDESQIS [C17D], with 1.9; and VAAALRYLQIFATRRSQIDESQIS [C17Q], with 2.5. Then VAAALRYLQIFATRRSHIDESQIS [C17H], with 1.27; and VAAALRYLQIFATRRSYIDESQIS [C17Y], with 3.8; and VAAALRYLQIFATRRSLIDESQIS [C17L], with 1.58. Regarding VAAALRYLQIFATRRSKIDESQIS [C17K], the protein stability index was 1.89. With VAAALRYLQIFATRRSEIDESQIS [C17E] the figure was 1.71; with VAAALRYLQIFATRRSMIDESQIS [C17M], 2.58. Then VAAALRYLQIFATRRSRIDESQIS [C17R], with 1.23; and VAAALRYLQIFATRRSVIDESQIS [C17V], with 1.27. With VAAALRYLQIFATRRSIIDESQIS [C17I] the figure was 2.44; with VAAALRYLQIFATRRSAIDESQIS [C17A], 1.72; with VAAALRYLQIFATRRSTIDESQIS [C17T], 2.17. On to VAAALRYLQIFATDRSCIDESQIS [R14D], for which the protein stability index is 2.37. With VAAALRYLQIFATPRSCIDESQIS [R14P] the figure was 2.78. With VAAALRYLQIFATYRSCIDESQIS [R14Y] the figure was 3.44; with VAAALRYLQIFATFRSCIDESQIS [R14F], 2.54. As for VAAALRYLQIFATHRSCIDESQIS [R14H], the protein stability index came out at 3.33.

With VAAALRYLQIFATNRSCIDESQIS [R14N], the protein stability index was 1.5. With VAAALRYLQIFATERSCIDESQIS [R14E] the figure was 1.12; with VAAALRYLQIFATMRSCIDESQIS [R14M], 1.56. Then VAAALRYLQIFATSRSCIDESQIS [R14S], with 2.38; and VAAALRYLQIFATTRSCIDESQIS [R14T], with 2.5; and VAAALRYLQIFATLRSCIDESQIS [R14L], with 2.5. With VAAALRYLQIFATCRSCIDESQIS [R14C] the figure was 3.16. Turning to VAAALRYLQIFATIRSCIDESQIS [R14I], the protein stability index worked out at 3.84.

For the variant VAAALRYLQIFATGRSCIDESQIS [R14G], the protein stability index came out at 1.88. With VAAALRYLQIFATKRSCIDESQIS [R14K] the figure was 1.79.
